Reference: patent US11653679B2, “High-purity steviol glycosides” (PureCircle Sdn Bhd, priority 2014, dated 2023)
Where two headings read alike, the source gives them in different places.

Legend:
Assay type in all cases: biochemical
[1] = Rubusoside conversion products with UGTSL, UGTSL2, UGTLB by LCMS (Example 33); conditions: reaction time UGTSL2 2 hrs, UGTLB 5 hrs, UGTSL 45 hrs
Description: (§1) Conversion of stevioside with UGTSL and UGTSL2 was conducted in similar manner to Example 28, and the conversion of rubusoside with UGTSL and UGTSL2 was conducted similarly to Example 29. Conversions of rubusoside and stevioside with UGTLB was conducted similarly to Example 32.
(§2) The reaction mixtures were analyzed by LCMS to determine all reaction products.

[2] = Activity for Stevioside to Rebaudioside E conversion with UGTSL, UGTSL2, UGTLB (Examples 28, 32); conditions: 600 μL lysate, based on initial concentration of Stevioside; for Rebaudioside E formation: 0.5 mM Stevioside; for Stevioside conv. (reaction time): 0.5 mM substrate
Description: (§3) Activity tests were performed at 3 mL scale with 600 μL of lysate for the transformation of Stevioside using 0.5 mM of substrate, 2.5 mM of UDP-Glucose and 3 mM MgCl2 in 50 mM Sodium Phosphate buffer at pH 7.2. Samples were taken and analyzed by HPLC. HPLC Analysis. The HPLC assay was performed as described in EXAMPLE 20.
as §3, with “HPLC.” for “HPLC. HPLC Analysis.”, “corresponding chromatograms are depicted” for “HPLC assay was performed as described”, “FIG. 63a.” for “EXAMPLE 20.”

[3] = Activity for Rubusoside to Rebaudioside E conversion with UGTSL, UGTSL2, UGTLB (Examples 29, 32); conditions: 600 μL lysate, based on initial concentration of Rubusoside; for Rebaudioside E formation: 0.5 mM Rubusoside; for Rubusoside conv. (reaction time): 0.5 mM substrate
Description: as §3, with “Rubusoside” for “Stevioside”, “HPLC.” for “HPLC. HPLC Analysis.”
(§4) Activity tests were performed at 3 mL scale with 600 μL of lysate for the transformation of Rubusoside using 0.5 mM of substrate, 2.5 mM of UDP-Glucose and 3 mM MgCl2 in 50 mM Sodium Phosphate buffer at pH 7.2. Samples were taken and analyzed by HPLC. The corresponding chromatograms are depicted in FIG. 63b.

[4] = Activity for Rebaudioside A to Rebaudioside D conversion with UGTSL2, UGTLB (Examples 30, 32); conditions: UGTLB, 22 h., 600 μL lysate, based on initial concentration of Rebaudioside A
Description: as §3, with “60” for “600”, “Rebaudioside A” for “Stevioside”, “HPLC.” for “HPLC. HPLC Analysis.”
as §4, with “Rebaudioside A” for “Rubusoside”, “chromatogram after 23 h. of reaction is” for “chromatograms are”, “63c.” for “63b.”

[5] = Stevioside conversion products with UGTSL, UGTSL2, UGTLB by LCMS (Example 33); conditions: reaction time UGTSL2 2 hrs, UGTLB 2 hrs, UGTSL 22 hrs
Description: as §1, §2

[6] = Catalytic test Rebaudioside A to Rebaudioside D with in-vitro expressed UDP-glucosyltransferases (Examples 20, 21), HPLC
Description: The prepared expression medium mix was added to the plasmid solution and the solution was allowed to incubate at 30° C. for 3 hours while mixing the mixture every 45 minutes. 5 μL of the mixture was frozen whereas the remainder was used for the catalytic test for the conversion of Rebaudioside A to Rebaudioside D.
(§5) 430 μL of a reaction mixture containing 0.5 mM Rebaudioside A, 3 mM MgCl2, 50 mM phosphate buffer (pH7.2) and 2.5 mM UDP-glucose was added to a 1.5 mL sterile microtube. 52 μl of the enzyme expression medium was added and the resulting mixture was allowed to react at 30° C. for 24 hours. 125 μL samples were taken after 2 hours, 16 hours and 24 hours and added to a 115 μL of 60% methanol and 10 μL of 2 N H2SO4. The quenched sample was centrifuged at 18,000 g for 2 minutes at RT. 200 μL was transferred to an HPLC vial and analyzed.
The HPLC assay was performed as follows:
as §5, with “μL” for “μl”, “to” for “to an”
(§6) The HPLC assay was performed as described in EXAMPLE 20.

[7] = Activity of in-vivo produced enzymes for transformation of Rebaudioside A (Example 22)
Description: Activity tests were performed at 5 mL scale with 1,000 μL of thawed lysate for the transformation of Rebaudioside A using 0.5 mM of substrate, 2.5 mM of UDP-Glucose and 3 mM MgCl2 in 50 mM Sodium Phosphate buffer at pH 7.2. Samples were taken and analyzed by HPLC.
as §6

[8] = LC-MS of reaction mixtures of GI No. 460409128 with Rebaudioside A (Example 23)
Description: The reaction mixtures representing GI No. 460409128, particularly the sample “12400 S115N05A7 T24h 130627ABA” of EXAMPLE 20 (hereinafter S115N05A7), and the sample “12400 S129N04 T45h 130712ABA” of EXAMPLE 22 (hereinafter S129N04) were additionally assayed by LC-MS to identify the unknown glycosides. An Agilent 1200 series HPLC system, equipped with binary pump (G1312B), autosampler (G1367D), thermostatted column compartment (G1316B), DAD detector (G1315C), connected with Agilent 6110A MSD, and interfaced with “LC/MSD Chemstation” software, was used.
The compound observed on LCMS system at 3.5 min, corresponds to compound “Unknown@4.508” in sample “S115N05A7” (EXAMPLE 20), and compound “Unknown@RT4.526” in sample “S129N04” (EXAMPLE 22).
The ratio of these compounds and the LCMS chromatograms are provided below.

[9] = 0.5 mM Rebaudioside A, 30° C., HPLC

B1: UGTLB: UDP-glucosyltransferase, Lycium barbarum, SEQ ID NO:10 (protein, listed as Escherichia coli)
chain: MGTEVTVHKNTLRVLMFPWLAYGHISPFLNVAKKLVDRGFLIYLCSTAINLKSTIKKIPEKYSDSIQLIELHLPELPELPPHYHTTNGLPPHLNHTLQKALKMSKPNFSKILQNLKPDLVIYDLLQQWAEGVANEQNIPAVKLLTSGAAVLSYFFNLVKKPGVEFPFPAIYLRKNELEKMSELLAQSAKDKEPDGVDPFADGNMQVMLMSTSRIIEAKYIDYFSGLSNWKVVPVGPPVQDPIADDADEMELIDWLGKKDENSTVFVSFGSEYFLSKEDREEIAFGLELSNVNFIWVARFPKGEEQNLEDALPKGFLERIGDRGRVLDKFAPQPRILNHPSTGGFISHCGWNSVMESVDFGVPIIAMPIHLDQPMNARLIVELGVAVEIVRDDYGKIHREEIAEILKDVIAGKSGENLKAKMRDISKNLKSIRDEEMDTAAEELIQLCKNSPKLK
In the case of B1, the “LC-MS, peak area ratio (%): REb E” value [1] is reported as 9.21%, the “LC-MS, peak area ratio (%): Reb D” value [1] is reported as 1.29% and the “LC-MS, peak area ratio (%): Rub” value [1] is reported as 13.49%. For the same molecule, the “LC-MS, peak area ratio (%): Unknown peak #1 (MW804) RT 30.70 min” value [1] was 4.07%, the “LC-MS, peak area ratio (%): Unknown peak #2 (MW804) RT 49.50 min” value [1] was 66.67% and the “LC-MS, peak area ratio (%): Unknown peak #3 (MW804) RT 50.40 min” value [1] was 5.27%. For the same molecule, the “Rebaudioside E formation” value ([2]; UGTLB, 22 h.) was 3%, the “Stevioside conv. (reaction time)” value ([2]; UGTLB, 22 h.) was 89% (22 h.) and the “Rebaudioside E formation” value ([3]; UGTLB, 5 h.) was 4%. For the same molecule, the “Rubusoside conv. (reaction time)” value ([3]; UGTLB, 5 h.) was 65% (5 h.), the “Rebaudioside D formation” value ([4]; 0.5 mM Rebaudioside A) was 10% and the “Rebaudioside A conv. (reaction time)” value ([4]; 0.5 mM substrate) was 72% (22 h.). The “LC-MS, peak area ratio (%): Reb E” value [5] was 3.12%, the “LC-MS, peak area ratio (%): Stev” value [5] was 43.11% and the “LC-MS, peak area ratio (%): Unknown peak #2 (MW966) RT = 26.50 min” value [5] was 53.78%.

B2: gi460409128_XP_004249992.1: cyanidin-3-O-glucoside 2-O-glucuronosyltransferase-like [Solanum lycopersicum], SEQ ID NO:5; S129N04 is its Example 22 reaction sample (protein, listed as Solanum lycopersicum)
chain: MSPKLHKELFFHSLYKKTRSNHTMATLKVLMFPFLAYGHISPYLNVAKKLADRGFLIYFCSTPINLKSTIEKIPEKYADSIHLIELHLPELPQLPPHYHTTNGLPPNLNQVLQKALKMSKPNFSKILQNLKPDLVIYDILQRWAKHVANEQNIPAVKLLTSGAAVFSYFFNVLKKPGVEFPFPGIYLRKIEQVRLSEMMSKSDKEKELEDDDDDDDLLVDGNMQIMLMSTSRTIEAKYIDFCTALTNWKVVPVGPPVQDLITNDVDDMELIDWLGTKDENSTVFVSFGSEYFLSKEDMEEVAFALELSNVNFIWVARFPKGEERNLEDALPKGFLERIGERGRVLDKFAPQPRILNHPSTGGFISHCGWNSAMESIDFGVPIIAMPMHLDQPMNARLIVELGVAVEIVRDDDGKIHRGEIAETLKGVITGKTGEKLRAKVRDISKNLKTIRDEEMDAAAEELIQLCRNGN
In the case of B2, the “LC-MS, peak area ratio (%): REb E” value [1] is reported as 35.88%, the “LC-MS, peak area ratio (%): Reb D” value [1] is reported as 3.45% and the “LC-MS, peak area ratio (%): Rub” value [1] is reported as 7.82%. For the same molecule, the “LC-MS, peak area ratio (%): Stev” value [1] was 2.37%, the “LC-MS, peak area ratio (%): Unknown peak #1 (MW804) RT 30.70 min” value [1] was 20.38% and the “LC-MS, peak area ratio (%): Unknown peak #2 (MW804) RT 49.50 min” value [1] was 27.75%. For the same molecule, the “LC-MS, peak area ratio (%): Unknown peak #3 (MW804) RT 50.40 min” value [1] was 2.35%, the “Rebaudioside E formation” value ([2]; reaction time UGTSL 22 h., UGTSL2 2 h.) was 46% and the “Stevioside conv. (reaction time)” value ([2]; reaction time UGTSL 22 h., UGTSL2 2 h., 2.5 mM UDP-Glucose, pH 7.2) was 74% (22 h.). The “Rebaudioside E formation” value ([3]; reaction time UGTSL 45 h., UGTSL2 2 h.) was 27%, the “Rubusoside conv. (reaction time)” value ([3]; reaction time UGTSL 45 h., UGTSL2 2 h., 2.5 mM UDP-Glucose, pH 7.2) was 70% (45 h.) and the “Steviol glycoside conversion in reaction mixture, Reb A” value (“Steviol glycoside conversion … Reb A” below) [6, 9] was 46.7 % area. For the same molecule, the “Steviol glycoside conversion in reaction mixture, Reb UNK (later identified as reb D2)” value [6, 9] was 23.3 % area, the “Conversion RebA to RebD” value ([6]; in-vitro expressed enzyme) was “Active” and the “Conversion after 45 hrs.” value ([7]; 0.5 mM, in-vivo produced enzyme lysate) was 62.1%. For the same molecule, the “Reb D selectivity” value ([7]; after 45 hrs.) was 43.6%, the “LC-MS, peak area ratio (%): Reb D” value [5] was 0.54% and the “LC-MS, peak area ratio (%): Reb E” value [5] was 49.68%. The “LC-MS, peak area ratio (%): Stev” value [5] was 25.24%, the “LC-MS, peak area ratio (%): Unknown peak #1 (MW966) RT = 22.60 min” value [5] was 3.97% and the “LC-MS, peak area ratio (%): Unknown peak #2 (MW966) RT = 26.50 min” value [5] was 20.56%. The “Steviol glycoside conversion … Reb A” value [8] was 49.00 % area, the “Steviol glycoside conversion in reaction mixture, Reb D” value [8] was 23.73 % area and the “Steviol glycoside conversion in reaction mixture, Reb UNK (reb D2)” value [8] was 21.22 % area. The “Steviol glycoside conversion in reaction mixture, Unknown@RT3.5 (reb M2)” value [8] was 6.05 % area, the “Steviol glycoside conversion … Reb A” value ([8]; listed as S115N05A7) was 53.24 % area and the “Steviol glycoside conversion in reaction mixture, Reb D” value ([8]; listed as S115N05A7) was 20.35 % area. The “Steviol glycoside conversion in reaction mixture, Reb UNK (reb D2)” value ([8]; listed as S115N05A7) was 19.93 % area and the “Steviol glycoside conversion in reaction mixture, Unknown@RT3.5 (reb M2)” value ([8]; listed as S115N05A7) was 6.47 % area.
